# Measurements taken from US6465220B1, “Glycosylation using GalNac-T4 transferase” (GlycoZym ApS, priority 1998, dated 2002).
# Molecular target: T1, GalNAc-T4 (Homo sapiens, UniProt Q8N4A0)
# T1 construct: made in house; host or cells: High Five insect cells (baculovirus, pAcGP67 vector)
# Experiment: GalNAc-transferase assay with purified recombinant GalNAc-T4
# Assay type: biochemical
# Protocol: In the examples, GalNAc-transferase assays were performed in 50 μl total reaction mixtures containing 25 mM cacodylate (pH 7.5), 10 mM MnCl2, 0.1-0.25% Triton X-100, 150-200 μM UDP-[^14C]-GalNAc (4,000 cpm/nmole) (Amersham) and 0.06-1 mM acceptor peptides. Peptides were either synthesized or obtained from Carlbiotech (Copenhagen), or Neosystems (Strasbourg), and quality was ascertained by amino acid analysis and mass spectrometry. Peptides Muc-1a, Muc-1b, and TAP24, were derived from the tandem repeat of human MUC1, Gendler et al., J. Biol. Chem. 265:15286 (1990), and Muc2, Muc5AC, and Muc7 from the tandem repeats of MUC2, MUC5AC, and MUC7, respectively. Gum et al., J. Biol. Chem. 264:6480 (1989); Porchet et al., Biochem. Soc. Trans. 23:800 (1995); Bobek et al., J. Biol. Chem. 268:20563 (1993). GalNAc4TAP24 was produced by in vitro glycosylation using GalNAc-T2 as described in Wandall et al., J. Biol. Chem. 272:23503 (1997). Products were quantified by scintillation counting after chromatography on Dowex-1, octadecyl silica cartridges (Bakerbond), or HPLC (PC3.2/3 or mRPC C2/C18 SC2.1/10 Pharmacia, Smart System). Products produced by in vitro glycosylation were in most cases also confirmed by mass spectrometry.
# In this example, GalNAc-T4 was expressed in Sf9 insect cells. Expression constructs designed to contain amino acid residues 32-578 of the coding sequence of the putative GalNAc-T4 gene shown in SEQ ID NO:1 prepared by genomic PCR of two clones containing GalNAc-T4 (described in Bennett et al. (1998), supra) were cloned into a BamHI site of the expression vector pAcGP67 (Pharmingen), and the expression construct was sequenced. The constructs pAcGP67-GalNAc-T4506Vsol and pAcGP67-GalNAc-T4506 I sol, were designed to yield a putative soluble form of the GalNAc-T4 protein with an N-terminal end positioned immediately C-terminal to a potential transmembrane domain and including the entire sequence expected to contain the catalytic domain. […] Res. Comm. 211:347 (1995).
# The activities presented in Table I were obtained with purified GalNAc-T4 and -T2, and are expressed as mU/mg (the concentration of enzyme protein estimated by SDS-PAGE using BSA as standard).
# T1 sequence (Q8N4A0 32-578 limits assumed): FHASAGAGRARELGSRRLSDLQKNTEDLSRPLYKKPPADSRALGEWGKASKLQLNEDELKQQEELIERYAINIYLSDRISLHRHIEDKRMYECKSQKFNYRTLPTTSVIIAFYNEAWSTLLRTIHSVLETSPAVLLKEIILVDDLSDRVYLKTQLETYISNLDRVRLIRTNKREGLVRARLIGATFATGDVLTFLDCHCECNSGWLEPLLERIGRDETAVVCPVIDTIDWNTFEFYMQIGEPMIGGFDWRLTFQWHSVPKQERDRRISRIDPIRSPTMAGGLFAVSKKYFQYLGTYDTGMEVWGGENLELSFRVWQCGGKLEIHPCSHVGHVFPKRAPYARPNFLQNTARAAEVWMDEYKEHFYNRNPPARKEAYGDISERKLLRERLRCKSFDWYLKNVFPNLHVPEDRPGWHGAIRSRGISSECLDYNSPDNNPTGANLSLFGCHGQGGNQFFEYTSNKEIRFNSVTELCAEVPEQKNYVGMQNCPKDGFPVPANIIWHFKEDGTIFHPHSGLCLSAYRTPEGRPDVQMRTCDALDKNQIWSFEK
sequence,measurement,setting,value
"DSTTPAPTTK [EA2, mucin derived substrate]",GalNAc-T4 activity with acceptor peptide,0.06 mM peptide in 50-μl assay,15 ± 0.1 milliunits/mg
same,GalNAc-T4 activity with acceptor peptide,0.25 mM peptide in 50-μl assay,42 ± 4 milliunits/mg
same,Vmax GalNAc-T4,acceptor substrate,0.44 nmol/min/µg
same,Km,"acceptor substrate, read-out: Km GalNAc-T4",2190 µM
